Measured values: patent US20120207760A1

Tests used:
Conditions in all cases: remark: other sources report otherwise
[1] = target: recombinant soluble homotrimeric HA of A/Japan/305/57 (H2N2) (Influenza A virus A/Japan/305/57 (H2N2)); assay: microarray, BCC supernatant IgG, trimeric HA
[2] = target: recombinant soluble homotrimeric HA of A/California/4/09 (H1N1) (Influenza A virus A/California/4/09 (H1N1)); assay: microarray, BCC supernatant IgG, trimeric HA
[3] = target: recombinant soluble homotrimeric HA of A/chicken/Vietnam/NCVD-016/08 (H5N1) (Influenza A virus A/chicken/Vietnam/NCVD-016/08 (H5N1)); assay: microarray, BCC supernatant IgG, trimeric HA
[4] = target: T1, recombinant homotrimeric HA, A/Japan/305/57 H2N2 (Influenza A virus A/Japan/305/57 (H2N2)); assay: trimeric HA microarray, transfection set 3
[5] = target: recombinant homotrimeric HA, A/Egypt/3300-NAMRU3/08 H5N1 (Influenza A virus A/Egypt/3300-NAMRU3/08 (H5N1)); assay: trimeric HA microarray, transfection set 3
[6] = target: recombinant homotrimeric HA, A/Vietnam/1203/04 H5N1 (Influenza A virus A/Vietnam/1203/04 (H5N1)); assay: trimeric HA microarray, transfection set 3
[7] = target: recombinant homotrimeric HA, A/common magpie/Hong Kong/5052/07 H5N1 (Influenza A virus A/common magpie/Hong Kong/5052/07 (H5N1)); assay: trimeric HA microarray, transfection set 3
[8] = target: T2, recombinant homotrimeric HA, A/swine/Ontario/01911-2/99 H4N6 (Influenza A virus A/swine/Ontario/01911-2/99 (H4N6)); assay: trimeric HA microarray, transfection set 3
[9] = target: T3, recombinant homotrimeric HA, A/Wisconsin/67/05 H3N2 (Influenza A virus A/Wisconsin/67/05 (H3N2)); assay: trimeric HA microarray, transfection set 3
[10] = target: recombinant homotrimeric HA, A/duck/Yangzhou/02/05 H8N4 (Influenza A virus A/duck/Yangzhou/02/2005 (H8N4)); assay: trimeric HA microarray, transfection set 3
[11] = target: recombinant soluble homotrimeric HA of A/swine/Ontario/01911-2/99 (H4N6) (Influenza A virus A/swine/Ontario/01911-2/99 (H4N6)); assay: microarray, BCC supernatant IgG, trimeric HA
[12] = target: T1, recombinant homotrimeric HA, …; assay: trimeric HA microarray, transfection set 5
[13] = target: recombinant homotrimeric HA, A/California/4/09 H1N1 (Influenza A virus A/California/4/09 (H1N1)); assay: trimeric HA microarray, transfection set 5
[14] = target: recombinant homotrimeric HA, A/Solomon Islands/3/06 H1N1 (Influenza A virus A/Solomon Islands/3/06 (H1N1)); assay: trimeric HA microarray, transfection set 5
[15] = target: recombinant homotrimeric HA, A/South Carolina/1/18 H1N1 (Influenza A virus A/South Carolina/1/18 (H1N1)); assay: trimeric HA microarray, transfection set 5
[16] = target: recombinant homotrimeric HA, A/Indonesia/5/05 H5N1 (Influenza A virus A/Indonesia/5/05 (H5N1)); assay: trimeric HA microarray, transfection set 5
[17] = target: T2, recombinant homotrimeric HA, …; assay: trimeric HA microarray, transfection set 5
[18] = target: T3, recombinant homotrimeric HA, …; assay: trimeric HA microarray, transfection set 5

B1: TCN-531 (5091_H13) (antibody, V domains shown)
VH: EVQLVESGGDLVQPGRSLKLSCTGSGFTFGDYGVTWVRQAPGKGLEWVGFIRTRPWGGTADTAASVKGRFTISRDDSKSLAYLQMNSLKTEDTAVYYCCRDAPPNVEVASMTNWYFDLWGRGTLVTVSS
VL: DIQLTQSPSSLSASVGDRVTITCRASQGILNCLAWYQQKPGKVPNLLMYAASTLQSGVPSRFSGSGFGTDFTLTISSLQPEDVATYYCQTYGGVSTFGGGTKVEIR
[1]
  Trimeric HA Binding: RLU: 410 RLU
[2]
  Trimeric HA Binding: RLU: 22200 RLU
[3]
  Trimeric HA Binding: RLU: 20800 RLU
[4]
  Trimeric HA Binding RLU: 489 RLU
[5]
  Trimeric HA Binding RLU: 363 RLU
[6]
  Trimeric HA Binding RLU: 2410 RLU
[7]
  Trimeric HA Binding RLU: 37 RLU
[8]
  Trimeric HA Binding RLU: 296 RLU
[9]
  Trimeric HA Binding RLU: 4160 RLU
[10]
  Trimeric HA Binding RLU: 3220 RLU

B2: TCN-555 (5246_L16) (antibody, V domains shown)
VH: QVQLVQSGAEVKRPGSSVKVSCTASGGIFRKNAISWVRQAPGQGLEWMGGIIAVFNTANYAQKFQNRVKITADESGNTAYMELSSLTSDDTAVYYCASHPKYFYGSGSYPDFWGQGTLVTVSS
VL: QSALTQPRSVSGSPGQSITISCTGGSSDIGASNSVSWYQQHPGKAPKLVIFDVTERPSGVPHRFSGSKSGNTASLTVSGLQPDDEADYFCCAYGGKYLVVFGGGTKVTVL
[11]
  Trimeric HA Binding: RLU: 1950 RLU
[12]
  Trimeric HA Binding RLU: 16700 RLU
[13]
  Trimeric HA Binding RLU: 20200 RLU
[14]
  Trimeric HA Binding RLU: 44600 RLU
[15]
  Trimeric HA Binding RLU: 48000 RLU
[16]
  Trimeric HA Binding RLU: 33900 RLU
[17]
  Trimeric HA Binding RLU: 4520 RLU
[18]
  Trimeric HA Binding RLU: 14700 RLU
